Results reported in IntAct's records for PubMed 25283965.

B1: C-C chemokine receptor type 2 (Homo sapiens), P41597-2 (parent)
chain: MLSTSRSRFIRNTNESGEEVTTFFDYDYGAPCHKFDVKQIGAQLLPPLYSLVFIFGFVGNMLVVLILINCKKLKCLTDIYLLNLAISDLLFLITLPLWAHSAANEWVFGNAMCKLFTGLYHIGYFGGIFFIILLTIDRYLAIVHAVFALKARTVTFGVVTSVITWLVAVFASVPGIIFTKCQKEDSVYVCGPYFPRGWNNFHTIMRNILGLVLPLLIMVICYSGILKTLLRCRNEKKRHRAVRVIFTIMIVYFLFWTPYNIVILLNTFQEFFGLSNCESTSQLDQATQVTETLGMTHCCINPIIYAFVGEKFRRYLSVFFRKHITKRFCKQCPVFYRETVDGVTSTNTPSTGEQEVSAGL
partner: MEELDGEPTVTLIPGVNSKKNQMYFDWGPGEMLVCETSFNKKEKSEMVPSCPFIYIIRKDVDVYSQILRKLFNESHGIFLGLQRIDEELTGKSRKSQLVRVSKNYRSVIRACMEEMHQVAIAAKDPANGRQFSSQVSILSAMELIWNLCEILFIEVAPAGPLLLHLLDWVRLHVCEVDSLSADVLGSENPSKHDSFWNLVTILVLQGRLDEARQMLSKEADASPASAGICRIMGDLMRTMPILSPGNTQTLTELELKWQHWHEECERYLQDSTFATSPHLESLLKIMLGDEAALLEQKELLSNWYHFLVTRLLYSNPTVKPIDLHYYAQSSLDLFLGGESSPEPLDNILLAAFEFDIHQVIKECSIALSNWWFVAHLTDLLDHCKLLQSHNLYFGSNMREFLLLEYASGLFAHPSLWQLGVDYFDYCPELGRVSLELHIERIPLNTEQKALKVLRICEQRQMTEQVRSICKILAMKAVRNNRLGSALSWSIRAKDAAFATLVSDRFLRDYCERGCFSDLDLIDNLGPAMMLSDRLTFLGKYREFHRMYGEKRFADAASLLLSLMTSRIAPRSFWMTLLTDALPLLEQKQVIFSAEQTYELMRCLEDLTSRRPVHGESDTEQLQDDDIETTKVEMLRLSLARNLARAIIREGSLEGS

Variants of: B1
Conditions: with nup85_human NUP85, Q9BW27

effect of a mutation on the interaction | Variant
decreasing interaction strength | L316T

Variants of: B1
Conditions: with nup85_human NUP85, Q9BW27
Remark: another data set of the same source

effect of a mutation on the interaction | Variant
decreasing interaction strength | F319D
